Test results from US20100196385A1 (AstraZeneca / MedImmune, published 2010).
Numbering of substitutions follows the chain as printed. Numbers in names are those of the source. Each block holds one binder with its values, some of them ahead of it.

Legend:
[1] = target: T1, human Jagged1 (human, UniProt P78504 34-1218); experiment: FACS, 5 µg/ml, 293T cells with human Jagged1
T1 construct: whole, on cells
Description: (§1) The ability of the purified antibodies to bind to human Jagged1 and Dll1 was determined by FACS analysis. […] Cells were resuspended in PBS containing 2% FCS and seeded at 50000 cells/well into V-bottomed plates. Anti-DLL4 antibodies diluted in PBS containing 2% FCS were added at a final concentration of 5 or 15 μg/ml and plates were incubated for 1 h at 4° C. […] Data was analyzed by comparing the shift in geometric mean fluorescence in the mock-transfected cells to that observed in the Jagged1- or Dll1-transfected cells and is shown in Tables 16 and 17.

[2] = target: T1, human Jagged1; experiment: FMAT, hybridoma supernatant, 293T cells with human Jagged1
Description: (§2) Cells diluted in PBS containing 2% FBS were seeded at a density of 3000 expressing and 15000 mock transfected cells per well in 384 well plates (Corning Costar, catalog #3712). Immediately after plating, 15 or 20 μl/well of hybridoma supernatants and 10 μl/well of secondary antibody (Goat anti-human IgG Fc Cy5, final concentration 750 ng/ml) were added and plates incubated for 3 h at room temperature prior to reading the fluorescence on the FMAT 8200 instrument (Applied Biosystems). The binding of human Notch1/Fc chimera (R&D systems, catalog #3647-TK), diluted 1:2 from 2.86 μg/ml was used as a positive control for DLL4 and human Notch3/Fc chimera diluted from 10 μg/ml was used a positive control for binding to Jagged1. Results for 12 hybridoma supernatants showing binding of hybridoma supernatants to human/cynomolgus monkey DLL4 and human Jagged are shown in Table 3.

[3] = target: T2, full length human DLL4 (human, UniProt Q9NR61 27-685); experiment: FMAT competition, purified antibody vs Alexa-647 human Notch1/Fc, 293T cells with human DLL4
T2 construct: whole, on cells; also called native DLL4 expressed in HEK293 cells
Description: To discriminate between the purified antibodies based upon their ability to prevent the interaction between full-length recombinant DLL4 and soluble Notch1/Fc, the following assays were performed. Transfected and untransfected 239T cells were reconstituted in PBS containing 2% FCS and 5000 transfected and 17500 non-transfected cells were plated in 30 μl into wells of a 384-well tissue culture plate (Corning Costar, catalog #3712). Subsequently, 30 μl of purified antibodies, serial diluted from 5 μg/ml hybridoma supernatant was added and plates were incubated at 4° C. for 1 h, at which time 20 μl of 100 ng/ml Alexa-647 labeled human Notch1/Fc was added. After a further 3 h incubation at 4° C., the amount of bound Notch1/Fc was determined by reading the fluorescence in each well using an FMAT 8200 instrument (Applied Biosystems).

[4] = target: T2, full length human DLL4; experiment: FMAT, hybridoma supernatant, 293T cells with human DLL4
Description: as §2

[5] = target: T3, human Dll1 (human, UniProt O00548 18-723); experiment: FACS, 15 µg/ml, 293T cells with human Dll1
T3 construct: whole, on cells
T3 sequence (looked up): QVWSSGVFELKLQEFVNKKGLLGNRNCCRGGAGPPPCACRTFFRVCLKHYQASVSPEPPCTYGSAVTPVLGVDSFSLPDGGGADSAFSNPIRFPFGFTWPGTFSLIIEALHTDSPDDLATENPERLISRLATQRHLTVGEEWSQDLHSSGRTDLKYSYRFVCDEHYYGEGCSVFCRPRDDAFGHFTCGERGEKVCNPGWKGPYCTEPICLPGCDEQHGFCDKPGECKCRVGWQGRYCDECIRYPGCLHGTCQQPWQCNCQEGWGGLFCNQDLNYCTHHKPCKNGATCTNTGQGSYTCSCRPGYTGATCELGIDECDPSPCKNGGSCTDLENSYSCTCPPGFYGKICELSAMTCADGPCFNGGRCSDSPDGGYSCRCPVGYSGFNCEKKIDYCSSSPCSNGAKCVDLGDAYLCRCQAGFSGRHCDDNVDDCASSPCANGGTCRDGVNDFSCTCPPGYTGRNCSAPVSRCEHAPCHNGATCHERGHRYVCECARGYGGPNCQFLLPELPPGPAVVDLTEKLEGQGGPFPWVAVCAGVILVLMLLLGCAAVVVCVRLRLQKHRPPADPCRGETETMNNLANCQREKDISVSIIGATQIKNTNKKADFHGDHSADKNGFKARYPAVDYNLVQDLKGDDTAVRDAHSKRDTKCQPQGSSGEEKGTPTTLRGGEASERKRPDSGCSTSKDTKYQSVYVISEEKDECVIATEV
Description: as §1

[6] = target: T2, full length human DLL4; experiment: FMAT competition, supernatant vs Alexa-647 human Notch1/Fc, 293T cells with human DLL4
Description: Transfected and untransfected 239T cells were reconstituted in PBS containing 2% FCS and 5000 transfected and 17500 non-transfected cells were plated in 20 μl into wells of a 384-well tissue culture plate (Corning Costar, catalog #3712). Subsequently, 20 μl of hybridoma supernatant was added and plates were incubated at 4° C. for 1 h, at which time 20 μl of Alexa-647 labeled human Notch1/Fc was added at a final concentration of 6.7 ng/ml. After a further 3 h incubation at 4° C., the amount of bound Notch1/Fc was determined by reading the fluorescence in each well using an FMAT 8200 instrument (Applied Biosystems). Results are expressed as % inhibitions with the minimum inhibition in the assay being determined by the effects of non-DLL4 binding supernatants prepared in a similar way as described in example 2, and the maximum inhibition being defined as the signal obtained in the presence of a saturating concentration of unlabeled Notch1/Fc. N.T.=not tested

[7] = target: DLL4 extracellular domain (R&D systems, catalog #1506-D4/CF) (UniProt Q9NR61 27-529, limits assumed); experiment: cell-based or functional assay
[8] = target: T1, human Jagged1; experiment: FACS, 5 µg/ml, 293T cells with human Jagged1 vs mock
Description: as §1

[9] = target: T3, human Dll1; experiment: FACS, 15 µg/ml, 293T cells with human Dll1 vs mock
Description: as §1

[10] = target: T2, full length human DLL4; experiment: FACS competition vs Notch1/Fc, HEK293 cells with human DLL4
Description: Further experiments were performed on selected antibodies using HEK293 cells that were stably transfected with either human, mouse or cynomolgus monkey DLL4 using retroviral constructs. In these experiments, anti-DLL4 antibodies (final concentration: 10-0.01 μg/ml) diluted in PBS containing 2% FCS were added to DLL4-expressing HEK 293 cells (50000 cells/well diluted in PBS containing 2% FCS) and incubated for 1 h at 4° C. Subsequently, Alexa-647 labeled human, rat or APC labeled mouse Notch1/Fc (e.g. R&D Systems, catalog #3647-TK-050, 1057-TK-050, 5267-TK-050, respectively) was added at a final concentration of 0.01-0.5 μg/ml and plates were incubated for a further 2 h at 4° C. prior to washing and reading on a FACSCalibur instrument.
(§3) The activity of the mutated antibodies was assessed in two ways: firstly, the ability of the antibodies to block the binding of soluble Notch1/Fc to full length human DLL4 stably expressed in HEK293 cells as described in Example 3 was determined and, secondly, the binding of the antibodies to the same cell line used in the receptor-ligand competition studies was determined. For the binding studies, HEK293 cells stably overexpressing human DLL4 were resuspended in PBS containing 2% FCS at a concentration of 50,000 cells/well and incubated with titrations of antibody (final concentrations 0.01-10 μg/ml) for 1 h at 4° C. The cells were then washed and incubated with 0.31 μg/ml anti-human IgG-Fc-FITC (BD Pharmingen, cat#555786) for 30 minutes at 4° C. Bound […] was detected using FACS analysis. Results of these studies are summarized in Table 23, which show the effects of specific mutations to sequences of 9G8 and 2H10 on the ability of the antibodies to compete with Notch1 for binding to human DLL4 or to bind to human DLL4 relative to unmutated antibodies.

[11] = target: T2, full length human DLL4; experiment: FACS binding, HEK293 cells with human DLL4
Description: as §3

Chain of DLL4 extracellular domain (R&D systems, catalog #1506-D4/CF) (Q9NR61 27-529 limits assumed): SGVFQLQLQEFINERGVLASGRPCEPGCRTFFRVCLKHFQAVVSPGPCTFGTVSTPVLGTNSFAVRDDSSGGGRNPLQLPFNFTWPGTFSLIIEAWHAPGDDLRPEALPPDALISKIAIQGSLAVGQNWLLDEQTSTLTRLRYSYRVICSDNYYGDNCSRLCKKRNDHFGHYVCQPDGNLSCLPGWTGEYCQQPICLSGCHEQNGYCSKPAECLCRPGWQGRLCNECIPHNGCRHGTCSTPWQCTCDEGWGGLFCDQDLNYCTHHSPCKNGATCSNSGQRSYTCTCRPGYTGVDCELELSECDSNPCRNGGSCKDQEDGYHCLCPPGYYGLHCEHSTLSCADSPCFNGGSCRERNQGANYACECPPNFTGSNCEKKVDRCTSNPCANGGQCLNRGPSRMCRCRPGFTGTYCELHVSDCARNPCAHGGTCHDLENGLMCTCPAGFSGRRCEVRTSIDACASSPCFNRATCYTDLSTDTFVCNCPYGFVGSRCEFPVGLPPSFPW
T2 sequence (Q9NR61 27-685): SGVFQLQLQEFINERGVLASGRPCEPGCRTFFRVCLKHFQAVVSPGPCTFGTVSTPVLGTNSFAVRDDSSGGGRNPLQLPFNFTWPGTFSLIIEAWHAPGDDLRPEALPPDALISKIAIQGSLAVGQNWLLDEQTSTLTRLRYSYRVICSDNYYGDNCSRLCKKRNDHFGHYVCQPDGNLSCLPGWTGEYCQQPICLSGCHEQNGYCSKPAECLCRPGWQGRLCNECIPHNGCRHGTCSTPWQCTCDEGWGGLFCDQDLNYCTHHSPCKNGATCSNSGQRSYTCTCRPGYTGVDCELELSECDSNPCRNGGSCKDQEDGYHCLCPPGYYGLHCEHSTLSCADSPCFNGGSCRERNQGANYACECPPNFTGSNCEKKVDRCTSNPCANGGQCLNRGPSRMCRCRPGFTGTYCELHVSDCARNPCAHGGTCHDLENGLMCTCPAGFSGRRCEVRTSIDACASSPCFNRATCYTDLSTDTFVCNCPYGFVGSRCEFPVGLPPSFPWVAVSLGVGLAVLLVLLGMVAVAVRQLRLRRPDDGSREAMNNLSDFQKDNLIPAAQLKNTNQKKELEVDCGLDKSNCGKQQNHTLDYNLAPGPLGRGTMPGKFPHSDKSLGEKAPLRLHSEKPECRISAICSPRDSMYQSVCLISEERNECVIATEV
T1 sequence (P78504 34-1218): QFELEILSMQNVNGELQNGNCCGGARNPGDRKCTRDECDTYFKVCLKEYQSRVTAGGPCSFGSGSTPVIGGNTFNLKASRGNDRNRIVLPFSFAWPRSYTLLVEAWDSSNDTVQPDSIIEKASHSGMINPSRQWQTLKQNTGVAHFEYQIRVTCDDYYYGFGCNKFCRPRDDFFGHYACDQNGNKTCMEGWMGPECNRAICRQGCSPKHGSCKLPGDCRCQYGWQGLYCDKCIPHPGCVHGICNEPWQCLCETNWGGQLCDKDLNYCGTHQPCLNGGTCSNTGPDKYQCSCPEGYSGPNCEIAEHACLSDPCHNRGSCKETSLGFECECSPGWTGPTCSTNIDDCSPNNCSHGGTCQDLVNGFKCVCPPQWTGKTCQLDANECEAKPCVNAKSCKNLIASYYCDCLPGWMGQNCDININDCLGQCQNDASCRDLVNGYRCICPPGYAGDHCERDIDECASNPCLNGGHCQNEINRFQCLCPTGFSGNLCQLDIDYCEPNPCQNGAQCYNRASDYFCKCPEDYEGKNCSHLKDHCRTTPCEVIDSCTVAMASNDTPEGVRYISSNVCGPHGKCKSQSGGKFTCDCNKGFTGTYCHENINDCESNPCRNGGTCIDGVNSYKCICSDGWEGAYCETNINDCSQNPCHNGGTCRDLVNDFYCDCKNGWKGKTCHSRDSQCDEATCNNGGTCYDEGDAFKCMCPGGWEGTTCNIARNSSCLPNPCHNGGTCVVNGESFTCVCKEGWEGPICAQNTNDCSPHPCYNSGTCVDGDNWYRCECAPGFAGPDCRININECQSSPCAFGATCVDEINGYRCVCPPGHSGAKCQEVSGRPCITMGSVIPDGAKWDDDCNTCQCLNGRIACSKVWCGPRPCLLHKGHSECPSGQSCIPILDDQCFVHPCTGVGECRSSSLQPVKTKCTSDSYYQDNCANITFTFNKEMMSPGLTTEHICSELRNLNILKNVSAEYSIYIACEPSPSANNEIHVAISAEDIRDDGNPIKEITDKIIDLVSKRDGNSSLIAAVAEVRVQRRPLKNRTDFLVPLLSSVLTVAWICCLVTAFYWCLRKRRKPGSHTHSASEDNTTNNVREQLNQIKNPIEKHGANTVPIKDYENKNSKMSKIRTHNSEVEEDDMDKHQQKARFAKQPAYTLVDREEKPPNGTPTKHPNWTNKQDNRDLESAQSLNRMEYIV

Jagged1/293T X Geo mean [1]: 14.4 | Count [2]: 25 | FL1 [2]: 988 | FL1 x count [2]: 24700 | % inhibition at 0.020 nM [3]: 6% | % inhibition at 0.070 nM [3]: -18% | % inhibition at 0.21 nM [3]: 9% | % inhibition at 0.62 nM [3]: 15% | % inhibition at 1.9 nM [3]: 88% | % inhibition at 5.6 nM [3]: 119% | % inhibition at 16.7 nM [3]: 101% | IC50 [3]: 1.48 nM | Count [4]: 179 | FL1 [4]: 9520 | FL1 x count [4]: 1.76e+06 | Dll1/293T X Geo mean [5]: 47 | % inhibition n = 1 [6]: 103% | % inhibition n = 2 [6]: 147% | % inhibition n = 3 [6]: 144% | Mean % inhibition [6]: 131% | % inhibition 1 µg/ml, AVERAGE (HUVEC proliferation on coated DLL4) [7]: 56% | % inhibition 1 µg/ml, N = 1 (HUVEC proliferation on coated DLL4) [7]: 50% | % inhibition 1 µg/ml, N = 2 (HUVEC proliferation on coated DLL4) [7]: 62% | % inhibition 10 µg/ml, AVERAGE (HUVEC proliferation on coated DLL4) [7]: 74% | % inhibition 10 µg/ml, N = 1 (HUVEC proliferation on coated DLL4) [7]: 62% | % inhibition 10 µg/ml, N = 2 (HUVEC proliferation on coated DLL4) [7]: 85% | Jagged1/mock ratio [8]: 1.11 | Dll1/mock ratio [9]: 1.12
B1: 12A1 (antibody, IgG4, V domains shown)
VH: QVQLVQSGAEVKRPGASVKVSCKASGYTFTSYGITWVRQAPGQGLEYMGWISTYNGNTDYAQKFQGRVTMTADISTSTAYMELRSLRSDDTAVYYCARERGSYFDYWGQGTLVTVSS
VL: SYELTQPPSVSVSPGQTARITCSGDTLPKKYAYWYQQKSGQAPVLVIYEDIKRPSGIPERFSGSSSGTMATLTISGAQVEDEADYYCFSTDSGGNHKFGGGTKLTVL
notes: Fully human; also used where no isotype is printed

IC50 [10]: 0.107 µg/mL | EC50 [11]: 0.051 µg/mL
B5: 9G8 IgG2 VH L38W/VL C33S (antibody, V domains shown)
VH: QLQLQESGPGLVKPSETLSLSCTVSGGSISSSSSYWGWIRQPPGKGLEWIGSIYYSGSTYYSPSLKSRVSISVDTSKNQFSLKLSSVTAADTAVYFCARQGYGGHPDVFDIWGQGTMVTVSS
VL: SSELTQSPSVSVSPGQTARITCSGDKLGDVYVSWYQQKTGQSPVLVIYEDTKRPSGIPERFSGSNSGNTATLTISGTQVMDEADYYCQAWDSTTAVIFGGGTKLTVL
notes: IgG2

More lines, now with the values behind:

B2: 17F3 (antibody, IgG2, V domains shown)
VH: QVQLVQSGAEVKKPGASVKVSCKASGYTFTNYGISWVRQAPGQGLEWMGWINAYNGNTNYAQNLQGRVTMTTDTSTNTAYMELRSLRSDDTAVYYCARVAPAAFFDYWDQGTLVTVSS
VL: SYELTQPPSVSVSPGQTASITCSGDKLGDKYVCWYQQKPGQSPVLVIYQDNKRPSGIPERFSGSNSGNTATLIISGTQAMDEADYYCQAWDSSTVFGGGTKLTVL
notes: as for B1
Jagged1/293T X Geo mean [1]: 16.3 | Count [2]: 30 | FL1 [2]: 1440 | FL1 x count [2]: 43100 | % inhibition at 0.020 nM [3]: 14% | % inhibition at 0.070 nM [3]: 25% | % inhibition at 0.21 nM [3]: 14% | % inhibition at 0.62 nM [3]: 29% | % inhibition at 1.9 nM [3]: 69% | % inhibition at 5.6 nM [3]: 121% | % inhibition at 16.7 nM [3]: 115% | IC50 [3]: 1.81 nM | Count [4]: 219 | FL1 [4]: 11300 | FL1 x count [4]: 2.47e+06 | Dll1/293T X Geo mean [5]: 47 | % inhibition n = 2 [6]: 108% | % inhibition n = 3 [6]: 131% | Mean % inhibition [6]: 120% | % inhibition 1 µg/ml, AVERAGE (HUVEC proliferation on coated DLL4) [7]: 30% | % inhibition 1 µg/ml, N = 1 (HUVEC proliferation on coated DLL4) [7]: 24% | % inhibition 1 µg/ml, N = 2 (HUVEC proliferation on coated DLL4) [7]: 35% | % inhibition 10 µg/ml, AVERAGE (HUVEC proliferation on coated DLL4) [7]: 52% | % inhibition 10 µg/ml, N = 1 (HUVEC proliferation on coated DLL4) [7]: 48% | % inhibition 10 µg/ml, N = 2 (HUVEC proliferation on coated DLL4) [7]: 56% | Jagged1/mock ratio [8]: 1.08 | Dll1/mock ratio [9]: 1.14

B3: 21F7 (antibody, IgG2, V domains shown)
VH: B2 VH with K23Q, P101A
VL: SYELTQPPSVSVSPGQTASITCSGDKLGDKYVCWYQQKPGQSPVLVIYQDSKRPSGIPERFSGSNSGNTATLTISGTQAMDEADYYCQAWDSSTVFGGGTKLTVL
notes: as for B1
Jagged1/293T X Geo mean [1]: 13.8 | Count [2]: 1 | FL1 [2]: 2070 | FL1 x count [2]: 2070 | % inhibition at 0.020 nM [3]: 11% | % inhibition at 0.070 nM [3]: 17% | % inhibition at 0.21 nM [3]: 7% | % inhibition at 0.62 nM [3]: -22% | % inhibition at 1.9 nM [3]: 35% | % inhibition at 5.6 nM [3]: 116% | % inhibition at 16.7 nM [3]: 104% | IC50 [3]: 1.95 nM | Count [4]: 200 | FL1 [4]: 10400 | FL1 x count [4]: 2.08e+06 | Dll1/293T X Geo mean [5]: 30.2 | % inhibition n = 2 [6]: 93% | % inhibition n = 3 [6]: 140% | Mean % inhibition [6]: 117% | % inhibition 1 µg/ml, N = 1 (HUVEC proliferation on coated DLL4) [7]: 30% | % inhibition 10 µg/ml, N = 1 (HUVEC proliferation on coated DLL4) [7]: 48% | Jagged1/mock ratio [8]: 1.01 | Dll1/mock ratio [9]: 1.13

B4: 9G8 IgG2 VH wt/VL wt (antibody, V domains shown)
VH: B5 VH with W38L
VL: B5 VL with S33C
notes: IgG2, transiently expressed
IC50 [10]: 0.17 µg/mL | EC50 [11]: 0.071 µg/mL
